4 molecules from US20160040196A1, “ENZYMATIC CONVERSION OF BOTH ENANTIOMERS OF 1,2-PROPANEDIOL TO PROPIONALDEHYDE” (University of Georgia Research Foundation, Inc., priority 2014, published 2016) can be followed below.

One series concerns RiDD. Briefly: Hydrogen-driven conversion in a cell-free reactor (proof of concept, FIG. 2). The format is biochemical, Roseburia inulinivorans. The conditions noted are these: 10% (v/v) 1,2-propanediol, 1 atm hydrogen. The method, then:
In the simplest embodiment the “cell free reactor” would include only “catalytic” amounts of the enzymes described herein. Specifically, a catalytic amount is one molecule and anything greater than one enzyme molecule. In the data shown in FIG. 2 of this disclosure the cell free reactor includes the following; 10 μM of RiDD, 100 μM yeast alcohol dehydrogenase (YADH), and 200 μM of the soluble hydrogenase from Ralstonia metallidurans (formally Alcaligenes eutrophus). The reaction was carried out under strictly anaerobic conditions (oxygen-free argon gas) and initiated by the addition of the reduced RiDD-AE (50 μM final) and S-adenosylmethionine (1 μM). 100% hydrogen gas was maintained in the head space of the reactor at 1 atm and the reaction also included 1 mM NADH, 20 mM TRIS pH 7.9, and 1% glycerol.
This experiment was performed in a 50 mL reactor with 20 mL liquid volume and the remaining headspace under 1 atm of oxygen-free hydrogen gas. Experimental conditions were as follows 20 mM Tris pH 7.9, 10% (v/v) 1,2-propanediol, 1% (v/v) glycerol 50 μM purified RiDD, 100 μM purified DhaT, 100 μM NAD+, and 100 μM purified H2ase. After a brief pre-incubation (20 min) period to insure strictly anaerobic conditions were achieved (less than 1 ppm O2), purified RiDD-AE in the reduced (formally [4Fe-4S]′) form was added to a final concentration of 50 μM to initiate the reaction. […]

The test system of a further series is C[C@H](O)CO. Put plainly: purified protein, by the assay type.
The next series has as its system OCC(O)CO. Briefly: purified protein, by the assay type.
Substrate in series [1]: C[C@@H](O)CO
Put plainly: Coupled enzyme assay for the RiDD (NADH-dependent reduction of propionaldehyde by YADH). The format is biochemical, Roseburia inulinivorans. The following applies: other: substrate of RiDD; Michaelis-Menten fit, FIG. 7. The text has this:
(§1) FIG. 5A depicts a chemical pathway describing how the conversion of glycerol, by an activated glycerol dehydratase can be easily monitored using purified DhaT and following the NADH-dependent reduction of 3-hydroxypropionaldehyde to 1,3-propanediol. Similarly, FIG. 5B depicts a chemical pathway for how the conversion of 1,2-propanediol, by an activated diol-dehydratase can be monitored by following the NADH-dependent reduction of propionaldehyde by YADH.
(§2) A coupled enzyme assay for the CbGD and the RiDD was performed as previously described^5 with minor modifications. Where indicated, varying amounts of the substrate (specifically, glycerol, R-1,2-propanediol, or S-1,2-propanediol) were added from pure stock solutions purchased through Sigma Chemical Company™ in some cases the stocks were diluted with ddH2O in order to allow for accurate measurement of the substrate at the lower concentrations. In addition, when glycerol was used as the substrate for the CbGD, the enzyme YqhD was included in the assay in place of yeast alcohol dehydrogenase (YADH) and […]. YqhD is an aldehyde reductase capable of the NADPH-dependent reduction of several aldehydes, including 3-hydroxypropionaldehyde and was overexpressed and purified from E. coli as previously described^9.

Substrate in series [2]: C[C@H](O)CO
The series is described as above. Type of series: biochemical, Roseburia inulinivorans. The following applies: other: substrate of RiDD; Michaelis-Menten fit, FIG. 7.
Description: as §1, §2

With `CC(O)CO` (racemic) [1,2-propanediol, propane-1,2-diol], in the series with RiDD (after 6 hours, 1% glycerol), the “propanol titer from conversion of 1,2-propanediol” value is roughly 14 g/L.

Take `OCC(O)CO` [glycerol, propane-1,2,3-triol]: in the series with RiDD (1% (v/v) glycerol, FIG. 2), the “concentration of glycerol over the reaction” value is on record as “remained unchanged”.

As a reminder, the Km is the concentration of substrate that gives half-maximal velocity. Take “C. butyricum glycerol dehydratase (CbGD) (Clostridium butyricum)”: the Km in the series with C[C@H](O)CO came out at 800 µM; in the series with OCC(O)CO, 200 µM.

B1: B12-independent diol dehydratase from R. inulinivorans (RiDD) (Roseburia inulinivorans) (protein)
chain: MGNYDSTPIAKSDRIKRLVDHLYAKMPEIEAARAELITESFKATEGQPVVMRKARAFEHILKNLPIIIRPEELIVGSTTIAPRGCQTYPEFSYEWLEAEFETVETRSADPFYISEETKKRLLAADAYWKGKTTSELATSYMAPETLRAMKHNFFTPGNYFYNGVGHVTVQYETVLAIGLNGVKEKVRKEMENCHFGDADYSTKMCFLESILISCDAVITYANRYAKMAEEMAEKETDAARRQELLTIARVCKNVPEFPAESFQEACQSFWFIQQVLQIESSGHSISPGRFDQYMYPYYEKDLKEGSLTREYAQELIDCIWVKLNDLNKCRDAASAEGFAGYSLFQNLIVGGQTVQGRDATNDLSFMCITASEHVFLPMPSLSIRVWHGSSKALLMRAAELTRTGIGLPAYYNDEVIIPALVHRGATMDEARNYNIIGCVEPQVPGKTDGWHDAAFFNMCRPLEMVFSNGYDNGEIASIQTGNVESFQSFDEFMEAYRKQMLYNIELMVNADNAIDYAHAKLAPLPFESCLVDDCIKRGMSAQEGGAIYNFTGPQGFGIANVADSLYTIKKLVFEEKRITMGELKKALEMNYGKGLDATTAGDIAMQVAKGLKDAGQEVGPDVIANTIRQVLEMELPEDVRKRYEEIHEMILELPKYGNDIDEVDELAREAAYFYTRPLETFKNPRGGMYQAGLYPVSANVPLGAQTGATPDGRLAHTPVADGVGPTSGFDISGPTASCNSVAKLDHAIASNGTLFNMKMHPTAMAGEKGLESFISLIRGYFDQQGMHMQFNVVDRATLLDAQAHPEKYSGLIVRVAGYSALFTTLSKSLQDDIIKRTEQADNR
In the case of B1, the Km was found to be 800 µM in series [1] and 500 µM in series [2].
